Experimental data taken from patent publication US20250346655 (published 2025).

Tests used:
[1] = target: alpha-synuclein physiologic tetramer (human, UniProt P37840); assay: SPR
alpha-synuclein oligomer = alpha-synuclein oligomer (human, UniProt P37840); assay: SPR
[2] = target: alpha-synuclein sonicated fibrils (human, UniProt P37840); assay: SPR
alpha-synuclein monomer = alpha-synuclein monomer (human, UniProt P37840); assay: SPR
gamma-synuclein monomer = gamma-synuclein monomer (human, UniProt O76070); assay: ELISA
beta-synuclein monomer = beta-synuclein monomer (human, UniProt Q16143); assay: ELISA
beta-synuclein monomer, sequence (Q16143 whole entry): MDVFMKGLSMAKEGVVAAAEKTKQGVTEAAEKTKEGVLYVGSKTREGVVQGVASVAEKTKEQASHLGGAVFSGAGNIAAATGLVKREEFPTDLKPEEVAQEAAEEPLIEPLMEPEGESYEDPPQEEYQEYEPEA

gamma-synuclein monomer, sequence (O76070 whole entry): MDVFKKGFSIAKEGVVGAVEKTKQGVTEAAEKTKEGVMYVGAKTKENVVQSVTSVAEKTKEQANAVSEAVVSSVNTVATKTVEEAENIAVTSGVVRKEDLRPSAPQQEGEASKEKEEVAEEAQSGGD

binding result [1] | Kd (alpha-synuclein oligomer) | Kd [2] | binding result (alpha-synuclein monomer) | binding result (gamma-synuclein monomer) | binding result (beta-synuclein monomer) | Binder
no binding | 985 nM | 8 nM | no binding |  |  | 12B12 (antibody, V domains shown) VH: EVQLQQSGAELVKPGASVKLSCTASGFNIKDTYIHWVKQRPEQGLEWIGRIDPANGNTNYDPKFQDKATITADTSSNTAYLQFSSLTSEDTAVYYCSNWDYFDYWGQGTTLTVSS VL: not shown
no binding | 431 nM | 9 nM | no binding | no binding | no binding | 2E9 (antibody, V domains shown) VH: EVKLLESGGGLVQPGGSLKLSCAASGFDFSRYWMNWVRQAPGKGLEWIGEINPHSSTINYAPSLKDKFIISRDNAKNTLYLQMSKVRSEDTALYYCGRGDYVDYWGLGTTLTVSS VL: DIVMSQSPSSLAVSVGEKVTMSCKSSQSLLYSRNQKNYLAWYQQKPGQSPKLLIYWASTRESGVPDRFTGSGSGTDFTLTISSVKADDLAVYYCQQYYSYPRTFGGGTKLEIK
no binding | 1610 nM | 20 nM | no binding |  |  | 12G1 (antibody, V domains shown) VH: QIQLVQSGPELRKPGETVRISCKASGYTFTTAGMQWVQKMPGKGLKWIGWINTHSGVPKYAEDFKGRFAFSLETSASTAYLQISNLKNEDTATYFCARTSWAPYWGQGTLVTVSA VL: not shown
